# Experimental data: US20250360126
# How the values were obtained:
# [1] = test system: Nap1 histone chaperone (a TTLL4 substrate protein)
# [2] = molecular target: Nucleophosmin NPM1, wild type, full-length (UniProt P06748)
# [3] = test system: T1, NPM2 (embryonic NPM1 paralog)
# T1 sequence (Q86SE8 1-214, species assumed, looked up): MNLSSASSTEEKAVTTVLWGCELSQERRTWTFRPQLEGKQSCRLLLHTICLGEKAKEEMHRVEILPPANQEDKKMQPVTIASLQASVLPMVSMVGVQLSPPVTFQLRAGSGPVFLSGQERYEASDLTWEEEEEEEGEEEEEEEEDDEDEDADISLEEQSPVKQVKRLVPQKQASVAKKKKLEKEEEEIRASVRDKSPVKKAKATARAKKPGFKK
# Sequence of Nucleophosmin NPM1, wild type, full-length (P06748 whole entry): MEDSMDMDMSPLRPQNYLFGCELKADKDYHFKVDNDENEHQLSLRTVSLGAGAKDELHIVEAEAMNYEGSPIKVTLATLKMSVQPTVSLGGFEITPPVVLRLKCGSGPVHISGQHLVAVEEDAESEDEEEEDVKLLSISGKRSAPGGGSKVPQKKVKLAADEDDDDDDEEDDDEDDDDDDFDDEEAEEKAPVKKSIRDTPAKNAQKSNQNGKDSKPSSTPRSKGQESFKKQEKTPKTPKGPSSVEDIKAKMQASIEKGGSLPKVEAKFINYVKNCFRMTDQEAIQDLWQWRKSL
substance,measurement,setting,value
"active human TTLL4 enzyme (Tubulin-Tyrosine Ligase Like 4), recombinant","in vitro glutamate-glutamylation, immunoblot time course (FIG. 10)",NPM1c (AML-mutant NPM1),AML-mutant NPM1c is a better in vitro substrate for TTLL4 than the wildtype NPM1
same,in vitro glutamate-glutamylation,[1],"capable of catalyzing in vitro glutamate-glutamylation of Npm1, Npm2, and Nap1 histone chaperone substrates (not shown)"
same,"kinase reaction, 32P-labeled phosphorylation (FIG. 7B)",[1],TTLL4 dependent 32P-labeled phosphorylation of Nap1 (a TTLL4 substrate protein)
same,glutamate-glutamylation of substrate (FIG. 2B),[2],TTLL4 glutamylates full-length NPM1
same,in vitro glutamate-glutamylation,[2],"capable of catalyzing in vitro glutamate-glutamylation of Npm1, Npm2, and Nap1 histone chaperone substrates (not shown)"
same,"in vitro glutamate-glutamylation, immunoblot time course (FIG. 10)",[2],AML-mutant NPM1c is a better in vitro substrate for TTLL4 than the wildtype NPM1
same,in vitro glutamate-glutamylation,[3],"capable of catalyzing in vitro glutamate-glutamylation of Npm1, Npm2, and Nap1 histone chaperone substrates (not shown)"
